From publication PMC3276697 (Traffic (Copenhagen, Denmark), 2012)

Target: T1, Vps4(E233Q), the ATP-locked form of Vps4 (S. cerevisiae, UniProt P52917 1-437, E233Q)
T1 sequence (looked up): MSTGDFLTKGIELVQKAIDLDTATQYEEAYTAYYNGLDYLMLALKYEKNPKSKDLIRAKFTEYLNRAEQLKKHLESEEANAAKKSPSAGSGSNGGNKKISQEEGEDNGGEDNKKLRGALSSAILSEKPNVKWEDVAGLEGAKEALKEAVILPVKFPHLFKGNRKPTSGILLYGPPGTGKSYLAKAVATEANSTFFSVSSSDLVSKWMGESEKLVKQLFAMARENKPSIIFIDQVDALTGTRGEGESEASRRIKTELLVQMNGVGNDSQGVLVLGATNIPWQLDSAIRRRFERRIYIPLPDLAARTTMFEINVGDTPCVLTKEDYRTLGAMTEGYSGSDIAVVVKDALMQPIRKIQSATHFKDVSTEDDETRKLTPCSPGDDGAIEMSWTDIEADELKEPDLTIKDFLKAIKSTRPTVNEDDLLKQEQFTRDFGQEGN
Test: pull-down

B1: GST-Did2(CT) (amino acids 113-204), the C-terminal half of Did2 (domain or fragment, S. cerevisiae, UniProt P69771 113-204, looked up)
chain: QQITMIMDKFEQQFEDLDTSVNVYEDMGVNSDAMLVDNDKVDELMSKVADENGMELKQSAKLDNVPEIKAKEVNVDDEKEDKLAQRLRALRG
  binding result: binds
